Laboratory results taken from patent US7122382.

Assays:
Jun = Jun (UniProt P05627); experiment: biotinylated row protein on streptavidin beads, 35S column protein counted
Fos = Fos (UniProt P01101); experiment: as above
SV40 large T (SV40) = SV40 large T (SV40) (UniProt P03070); experiment: as above
[1] = molecular target: luciferase [luciferase: P08659]; experiment: as above
p53 = p53 (UniProt P02340); experiment: as above
streptoavidin beads = streptoavidin beads (UniProt P22629); experiment: five 35S-labelled proteins alone on streptavidin beads, no biotinylated protein
Chain of streptoavidin beads (P22629 37-163): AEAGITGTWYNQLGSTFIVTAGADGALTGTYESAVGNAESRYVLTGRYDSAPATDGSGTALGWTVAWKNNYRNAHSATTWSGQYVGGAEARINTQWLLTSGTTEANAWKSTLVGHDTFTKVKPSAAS

Chain of p53 (P02340 whole entry): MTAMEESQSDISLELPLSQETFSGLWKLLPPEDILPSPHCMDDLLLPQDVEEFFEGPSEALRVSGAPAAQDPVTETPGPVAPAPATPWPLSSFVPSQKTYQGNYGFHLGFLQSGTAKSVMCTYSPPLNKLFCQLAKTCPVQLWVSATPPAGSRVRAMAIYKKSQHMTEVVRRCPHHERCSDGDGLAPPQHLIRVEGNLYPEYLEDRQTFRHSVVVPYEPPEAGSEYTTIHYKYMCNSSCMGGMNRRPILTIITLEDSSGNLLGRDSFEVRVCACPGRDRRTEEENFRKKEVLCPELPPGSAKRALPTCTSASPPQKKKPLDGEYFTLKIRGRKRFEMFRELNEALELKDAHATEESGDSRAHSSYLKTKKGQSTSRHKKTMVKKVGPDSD
Chain of Jun (P05627 whole entry): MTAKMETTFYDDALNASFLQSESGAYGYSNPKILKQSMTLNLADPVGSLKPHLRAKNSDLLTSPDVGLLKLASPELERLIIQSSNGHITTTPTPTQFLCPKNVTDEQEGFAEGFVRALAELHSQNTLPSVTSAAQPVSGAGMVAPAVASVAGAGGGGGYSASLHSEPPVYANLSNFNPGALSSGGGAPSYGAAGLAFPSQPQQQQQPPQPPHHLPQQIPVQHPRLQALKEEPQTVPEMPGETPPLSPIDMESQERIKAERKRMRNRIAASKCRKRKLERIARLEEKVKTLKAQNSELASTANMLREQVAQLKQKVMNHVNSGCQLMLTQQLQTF
Chain of Fos (P01101 whole entry): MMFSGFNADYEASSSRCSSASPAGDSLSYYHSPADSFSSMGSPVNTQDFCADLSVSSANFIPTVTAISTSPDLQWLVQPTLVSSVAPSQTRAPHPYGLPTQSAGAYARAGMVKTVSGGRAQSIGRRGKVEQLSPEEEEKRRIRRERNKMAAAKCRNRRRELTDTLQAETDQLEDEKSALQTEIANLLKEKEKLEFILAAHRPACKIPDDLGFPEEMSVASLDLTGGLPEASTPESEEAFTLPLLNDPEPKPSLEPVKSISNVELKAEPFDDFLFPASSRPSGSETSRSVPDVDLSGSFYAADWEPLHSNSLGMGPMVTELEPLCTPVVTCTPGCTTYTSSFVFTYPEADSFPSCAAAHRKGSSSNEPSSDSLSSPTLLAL
Chain of luciferase [luciferase: P08659] (P08659 whole entry): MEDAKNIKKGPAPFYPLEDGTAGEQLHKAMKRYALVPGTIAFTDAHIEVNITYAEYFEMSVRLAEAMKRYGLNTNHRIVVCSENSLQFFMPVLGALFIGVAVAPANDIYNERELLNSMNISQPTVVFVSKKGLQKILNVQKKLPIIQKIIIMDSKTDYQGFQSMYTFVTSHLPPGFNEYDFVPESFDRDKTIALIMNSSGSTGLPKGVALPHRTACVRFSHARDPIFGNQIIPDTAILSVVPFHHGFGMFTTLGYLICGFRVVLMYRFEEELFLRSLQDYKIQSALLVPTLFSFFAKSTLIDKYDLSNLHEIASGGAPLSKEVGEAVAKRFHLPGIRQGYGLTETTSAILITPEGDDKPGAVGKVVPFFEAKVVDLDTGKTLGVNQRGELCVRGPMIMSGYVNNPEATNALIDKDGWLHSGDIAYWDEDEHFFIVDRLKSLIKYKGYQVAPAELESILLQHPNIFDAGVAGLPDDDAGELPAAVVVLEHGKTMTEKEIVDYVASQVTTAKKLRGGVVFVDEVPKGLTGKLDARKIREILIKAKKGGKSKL

## SV40 large T (from UniProt P03070 1-708)
Jun
  RI (c.p.m.): 197 c.p.m.
Fos
  RI (c.p.m.): 197 c.p.m.
SV40 large T (SV40)
  RI (c.p.m.): 551 c.p.m.

## SV40 large T (from UniProt P03070 1-708) (other; other documents disagree on this pair)
[1]
  RI (c.p.m.): 208 c.p.m.
p53
  RI (c.p.m.): 1400 c.p.m.

## mixture of the five proteins of Reference Examples 1 and 2 (Fos, Jun, luciferase, SV40 large T, p53)
Streptoavidin beads
  RI (cpm), background without biotinylated proteins: 447 cpm

## p53 (from UniProt P02340 1-390)
p53
  RI (c.p.m.): 200 c.p.m.
